For one assay, the target named is T1, mouse plasminogen (mouse, UniProt P20918 20-812).
T1 construct: also called mouse (m) Pg
Put plainly: ELISA, antigen coated at 10 ug/ml, antibody supernatant, compared with anti-digoxin control. As to the method:
(§1) Then goat anti mouse antibody conjugated with HRP (1:5000, Sc-2005, Santa Cruz) was then added. The plate was washed after incubation for 1 h. TMB was added to the wells and absorbance at 370nm was recorded.
Background: An ELISA detects its analyte on a solid surface through an enzyme-linked reagent.

The target in a further assay is T2, bovine serum albumin (bovine, UniProt P02769 25-607).
T2 construct: also called BSA
The description is as above. As to the method:
as §1

A further assay has as its target human tPA (human, UniProt P00750 36-562). Described as above. The procedure:
as §1

Another assay has as its target T3, human plasminogen (human, UniProt P00747 20-810).
T3 construct: also called h Pg
Put plainly: saturation binding ELISA, human plasminogen coated at 2 ug/ml, one-site hyperbola fit.

A further assay concerns the target human plasmin (human, UniProt P00747 97-810, limits assumed). Kind of assay: cell-based or functional assay.

The source of these data is patent US20190085097A1 (published 2019).

As a reminder, the Kd is the equilibrium constant for the complex coming apart. Low values mean higher affinity, high ones lower affinity.

Sequence of human plasmin (P00747 97-810 limits assumed): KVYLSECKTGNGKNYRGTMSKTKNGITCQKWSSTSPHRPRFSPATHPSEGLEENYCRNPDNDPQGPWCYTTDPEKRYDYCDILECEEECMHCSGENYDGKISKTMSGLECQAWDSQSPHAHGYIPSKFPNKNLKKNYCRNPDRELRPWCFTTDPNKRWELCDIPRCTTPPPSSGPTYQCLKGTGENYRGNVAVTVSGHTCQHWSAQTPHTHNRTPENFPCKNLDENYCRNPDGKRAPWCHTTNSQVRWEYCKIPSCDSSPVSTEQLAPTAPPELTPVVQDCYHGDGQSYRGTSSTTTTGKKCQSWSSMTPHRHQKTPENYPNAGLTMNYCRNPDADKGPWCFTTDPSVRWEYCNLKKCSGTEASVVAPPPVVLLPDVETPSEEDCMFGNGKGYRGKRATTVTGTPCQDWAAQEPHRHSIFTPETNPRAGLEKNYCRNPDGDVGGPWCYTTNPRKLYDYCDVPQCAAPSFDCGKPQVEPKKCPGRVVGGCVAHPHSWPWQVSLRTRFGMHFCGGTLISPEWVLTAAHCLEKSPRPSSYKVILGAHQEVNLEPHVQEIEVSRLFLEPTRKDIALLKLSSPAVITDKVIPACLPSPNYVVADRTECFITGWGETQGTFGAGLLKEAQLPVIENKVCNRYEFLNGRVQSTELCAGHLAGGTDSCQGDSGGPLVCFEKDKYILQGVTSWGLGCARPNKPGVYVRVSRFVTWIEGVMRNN
T2 sequence (P02769 25-607 limits assumed): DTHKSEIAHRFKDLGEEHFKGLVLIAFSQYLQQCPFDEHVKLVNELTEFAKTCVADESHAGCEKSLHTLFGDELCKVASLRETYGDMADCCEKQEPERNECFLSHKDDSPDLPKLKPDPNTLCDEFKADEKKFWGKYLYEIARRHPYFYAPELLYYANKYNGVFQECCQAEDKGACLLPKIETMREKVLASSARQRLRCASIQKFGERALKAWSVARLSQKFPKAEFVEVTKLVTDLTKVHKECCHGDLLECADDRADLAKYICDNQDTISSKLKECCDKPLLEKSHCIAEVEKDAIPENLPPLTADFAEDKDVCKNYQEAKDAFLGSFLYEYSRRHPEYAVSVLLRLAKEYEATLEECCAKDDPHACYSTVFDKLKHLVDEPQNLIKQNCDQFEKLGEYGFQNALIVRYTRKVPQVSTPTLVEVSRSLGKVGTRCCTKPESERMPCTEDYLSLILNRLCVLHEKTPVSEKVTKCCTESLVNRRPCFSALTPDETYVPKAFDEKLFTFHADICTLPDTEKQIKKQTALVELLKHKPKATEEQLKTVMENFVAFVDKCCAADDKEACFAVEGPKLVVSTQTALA
T1 sequence (P20918 20-812 limits assumed): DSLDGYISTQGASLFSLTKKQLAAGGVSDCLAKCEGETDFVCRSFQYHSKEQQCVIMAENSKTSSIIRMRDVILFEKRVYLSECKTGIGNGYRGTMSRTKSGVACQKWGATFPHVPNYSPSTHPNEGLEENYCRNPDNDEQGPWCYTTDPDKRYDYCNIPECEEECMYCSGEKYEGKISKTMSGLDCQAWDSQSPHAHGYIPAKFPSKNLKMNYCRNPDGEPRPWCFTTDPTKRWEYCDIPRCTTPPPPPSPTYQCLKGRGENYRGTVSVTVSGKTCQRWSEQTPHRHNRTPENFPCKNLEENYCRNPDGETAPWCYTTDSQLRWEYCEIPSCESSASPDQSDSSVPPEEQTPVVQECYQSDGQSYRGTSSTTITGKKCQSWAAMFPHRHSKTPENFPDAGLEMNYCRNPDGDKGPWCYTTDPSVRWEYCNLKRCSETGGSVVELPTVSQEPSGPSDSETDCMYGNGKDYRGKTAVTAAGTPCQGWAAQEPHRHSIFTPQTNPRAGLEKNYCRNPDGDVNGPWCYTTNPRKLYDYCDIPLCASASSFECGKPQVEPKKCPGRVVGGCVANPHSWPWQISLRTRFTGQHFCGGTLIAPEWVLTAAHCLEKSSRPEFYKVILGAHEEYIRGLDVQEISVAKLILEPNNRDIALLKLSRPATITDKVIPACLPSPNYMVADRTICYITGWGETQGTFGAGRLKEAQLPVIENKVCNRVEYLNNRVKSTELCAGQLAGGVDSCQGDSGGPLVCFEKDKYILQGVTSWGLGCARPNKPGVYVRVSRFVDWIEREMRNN
T3 sequence (P00747 20-810 limits assumed): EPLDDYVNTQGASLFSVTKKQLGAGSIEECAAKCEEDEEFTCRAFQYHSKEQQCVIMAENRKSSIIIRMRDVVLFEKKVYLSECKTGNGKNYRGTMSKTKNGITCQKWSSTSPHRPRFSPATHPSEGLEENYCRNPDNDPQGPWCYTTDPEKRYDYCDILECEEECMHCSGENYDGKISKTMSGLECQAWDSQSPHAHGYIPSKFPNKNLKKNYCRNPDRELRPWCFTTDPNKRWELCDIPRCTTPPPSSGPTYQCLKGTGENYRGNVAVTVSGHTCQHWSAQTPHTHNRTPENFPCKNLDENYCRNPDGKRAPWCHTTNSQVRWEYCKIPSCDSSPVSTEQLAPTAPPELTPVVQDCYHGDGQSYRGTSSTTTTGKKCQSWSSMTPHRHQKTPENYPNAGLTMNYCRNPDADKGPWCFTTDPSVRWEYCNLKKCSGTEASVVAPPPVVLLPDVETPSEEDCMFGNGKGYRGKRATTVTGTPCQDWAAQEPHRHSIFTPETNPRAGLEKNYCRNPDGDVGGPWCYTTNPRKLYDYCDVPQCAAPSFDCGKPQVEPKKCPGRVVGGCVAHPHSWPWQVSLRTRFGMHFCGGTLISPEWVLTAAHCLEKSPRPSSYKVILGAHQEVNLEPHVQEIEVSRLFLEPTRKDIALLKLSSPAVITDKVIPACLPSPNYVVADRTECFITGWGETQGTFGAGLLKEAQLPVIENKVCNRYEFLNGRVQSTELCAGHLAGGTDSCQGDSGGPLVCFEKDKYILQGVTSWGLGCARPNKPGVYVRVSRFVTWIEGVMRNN
Sequence of human tPA (P00750 36-562 limits assumed): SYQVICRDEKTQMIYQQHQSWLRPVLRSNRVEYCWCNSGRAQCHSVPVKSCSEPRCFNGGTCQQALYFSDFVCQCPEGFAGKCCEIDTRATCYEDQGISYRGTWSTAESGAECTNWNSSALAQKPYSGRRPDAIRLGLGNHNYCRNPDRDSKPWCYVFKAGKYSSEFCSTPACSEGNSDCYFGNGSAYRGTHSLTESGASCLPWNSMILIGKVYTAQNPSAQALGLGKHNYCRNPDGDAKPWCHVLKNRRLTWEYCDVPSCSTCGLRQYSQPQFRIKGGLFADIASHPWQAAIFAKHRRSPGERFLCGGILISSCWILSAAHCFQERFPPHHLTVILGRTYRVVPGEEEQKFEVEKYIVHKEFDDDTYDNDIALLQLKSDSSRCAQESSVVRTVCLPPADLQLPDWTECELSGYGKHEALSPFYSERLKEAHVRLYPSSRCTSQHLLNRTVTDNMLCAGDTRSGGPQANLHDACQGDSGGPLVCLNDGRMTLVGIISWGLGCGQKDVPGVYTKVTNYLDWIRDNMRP
Description for human plasminogen: Saturation binding assay. Saturation binding assays were performed by ELISA in 96-well plates coated with 2 ug/ml of plasmin or plasminogen at room temperature for 1 hour. Wells were washed with PBS-T: (10 mM phosphate buffer pH 7.4, 150 mM NaCl, 0.05% Tween 20) six times. Non-specific protein binding sites were blocked with 1% BSA for 1 hour at room temperature. After washing the plate as above, various concentrations of antibody (0.002 to 100 ug/ml) were added to the plate in duplicate and for 1 hour at room temperature. The plate was washed and horseradish peroxidase (HRP) conjugated goat anti-mouse secondary antibody (1:8000, Santa Cruz, Dallas, Tex.) was added to the plate. After 1 hour incubation at room temperature, the plate was washed and TMB was added. The absorbance was then read at 370 nm.

B1: monoclonal antibody plasmin inhibitor (Pi) (antibody, mouse IgG1, kappa, V domains shown)
VH: EVKLLESGGGLVQPGGSLKLSCAASGFDFSRYWMSWVRQAPGKGLEWIGEINPDSSTINYTPSLKDKFIISRDNAKNSLYLQMSKVRSEDTALYYCASYCGYSYDALDCWGQGTSVTVSS
VL: DIQMTQSPSSLSASLGGKVSITCKASQDINKYISWYQHKPGKGPRLLIHYTSTLQPGIPSRFSGSGSGRDYSFSISNLEPEDIATYYCLQYDNLYTFGGGTKLEIKR
notes: Mouse hybridoma IgG purified from supernatant; also called Pi IgG; Pi MAb38
With B1, the binding result with mouse plasminogen, with bovine serum albumin and in the assay with human tPA was “no binding” throughout. In addition, in the assay with human plasminogen, the Kd was determined as 3.4 nM. The “plasmin-mediated fibrinolysis of human fibrin clots (125I-fibrin release, tPA)” value with human plasmin was ~5000 fold more potent than EACA.
